Assay results published in IntAct's records for PubMed 31515488.

B1: Protein sprouty homolog 1 (Homo sapiens), O43609 (parent)
chain: MDPQNQHGSGSSLVVIQQPSLDSRQRLDYEREIQPTAILSLDQIKAIRGSNEYTEGPSVVKRPAPRTAPRQEKHERTHEIIPINVNNNYEHRHTSHLGHAVLPSNARGPILSRSTSTGSAASSGSNSSASSEQGLLGRSPPTRPVPGHRSERAIRTQPKQLIVDDLKGSLKEDLTQHKFICEQCGKCKCGECTAPRTLPSCLACNRQCLCSAESMVEYGTCMCLVKGIFYHCSNDDEGDSYSDNPCSCSQSHCCSRYLCMGAMSLFLPCLLCYPPAKGCLKLCRRCYDWIHRPGCRCKNSNTVYCKLESCPSRGQGKPS
B2: Nuclear autoantigen Sp-100 (Homo sapiens), P23497 (parent)
chain: MAGGGGDLSTRRLNECISPVANEMNHLPAHSHDLQRMFTEDQGVDDRLLYDIVFKHFKRNKVEISNAIKKTFPFLEGLRDRDLITNKMFEDSQDSCRNLVPVQRVVYNVLSELEKTFNLPVLEALFSDVNMQEYPDLIHIYKGFENVIHDKLPLQESEEEEREERSGLQLSLEQGTGENSFRSLTWPPSGSPSHAGTTPPENGLSEHPCETEQINAKRKDTTSDKDDSLGSQQTNEQCAQKAEPTESCEQIAVQVNNGDAGREMPCPLPCDEESPEAELHNHGIQINSCSVRLVDIKKEKPFSNSKVECQAQARTHHNQASDIIVISSEDSEGSTDVDEPLEVFISAPRSEPVINNDNPLESNDEKEGQEATCSRPQIVPEPMDFRKLSTFRESFKKRVIGQDHDFSESSEEEAPAEASSGALRSKHGEKAPMTSRSTSTWRIPSRKRRFSSSDFSDLSNGEELQETCSSSLRRGSGSQPQEPENKKCSCVMCFPKGVPRSQEARTESSQASDMMDTMDVENNSTLEKHSGKRRKKRRHRSKVNGLQRGRKKDRPRKHLTLNNKVQKKRWQQRGRKANTRPLKRRRKRGPRIPKDENINFKQSELPVTCGEVKGTLYKERFKQGTSKKCIQSEDKKWFTPREFEIEGDRGASKNWKLSIRCGGYTLKVLMENKFLPEPPSTRKKRILESHNNTLVDPCEEHKKKNPDASVKFSEFLKKCSETWKTIFAKEKGKFEDMAKADKAHYEREMKTYIPPKGEKKKKFKDPNAPKRPPLAFFLFCSEYRPKIKGEHPGLSIDDVVKKLAGMWNNTAAADKQFYEKKAAKLKEKYKKDIAAYRAKGKPNSAKKRVVKAEKSKKKKEEEEDEEDEQEEENEEDDDK
partner: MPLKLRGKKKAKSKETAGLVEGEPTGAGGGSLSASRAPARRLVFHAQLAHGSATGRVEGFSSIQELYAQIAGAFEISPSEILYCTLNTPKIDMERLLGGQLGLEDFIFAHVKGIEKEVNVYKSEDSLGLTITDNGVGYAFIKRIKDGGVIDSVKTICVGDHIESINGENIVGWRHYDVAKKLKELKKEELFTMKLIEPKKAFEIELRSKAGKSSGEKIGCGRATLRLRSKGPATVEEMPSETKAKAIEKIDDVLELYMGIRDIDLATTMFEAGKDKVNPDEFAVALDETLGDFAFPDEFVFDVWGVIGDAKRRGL
B3: Sperm microtubule associated protein 2 (Homo sapiens), Q9P2T0 (parent)
chain: MGDSRRRSLGNQPSSEAAGRSEREQDGDPRGLQSSVYESRRVTDPERQDLDNAELGPEDPEEELPPEEVAGEEFPETLDPKEALSELERVLDKDLEEDIPEISRLSISQKLPSTTMTKARKRRRRRRLMELAEPKINWQVLKDRKGRCGKGYAWISPCKMSLHFCLCWPSVYWTERFLEDTTLTITVPAVSRRVEELSRPKRFYLEYYNNNRTTPVWPIPRSSLEYRASSRLKELAAPKIRDNFWSMPMSEVSQVSRAAQMAVPSSRILQLSKPKAPATLLEEWDPVPKPKPHVSDHNRLLHLARPKAQSDKCVPDRDPRWEVLDVTKKVVASPRIISLAKPKVRKGLNEGYDRRPLASMSLPPPKASPEKCDQPRPGL
B4: Origin recognition complex subunit 6 (Homo sapiens), Q9Y5N6 (parent)
chain: MGSELIGRLAPRLGLAEPDMLRKAEEYLRLSRVKCVGLSARTTETSSAVMCLDLAASWMKCPLDRAYLIKLSGLNKETYQSCLKSFECLLGLNSNIGIRDLAVQFSCIEAVNMASKILKSYESSLPQTQQVDLDLSRPLFTSAALLSACKILKLKVDKNKMVATSGVKKAIFDRLCKQLEKIGQQVDREPGDVATPPRKRKKIVVEAPAKEMEKVEEMPHKPQKDEDLTQDYEEWKRKILENAASAQKATAE
partner: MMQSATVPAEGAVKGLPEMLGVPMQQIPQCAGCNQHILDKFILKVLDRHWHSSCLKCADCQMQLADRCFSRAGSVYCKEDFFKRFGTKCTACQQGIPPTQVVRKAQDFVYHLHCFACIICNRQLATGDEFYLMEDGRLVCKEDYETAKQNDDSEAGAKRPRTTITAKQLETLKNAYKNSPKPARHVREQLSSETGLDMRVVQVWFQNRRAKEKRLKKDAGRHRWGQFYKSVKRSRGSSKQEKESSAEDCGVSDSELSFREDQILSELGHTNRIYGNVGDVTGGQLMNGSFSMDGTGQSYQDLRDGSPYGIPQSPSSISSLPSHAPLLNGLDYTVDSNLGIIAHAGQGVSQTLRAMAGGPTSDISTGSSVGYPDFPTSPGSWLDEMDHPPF
B5: Proton-coupled zinc antiporter SLC30A2 (Homo sapiens), Q9BRI3 (parent)
chain: MEAKEKQHLLDARPAIRSYTGSLWQEGAGWIPLPRPGLDLQAIELAAQSNHHCHAQKGPDSHCDPKKGKAQRQLYVASAICLLFMIGEVVGGYLAHSLAVMTDAAHLLTDFASMLISLFSLWMSSRPATKTMNFGWQRAEILGALVSVLSIWVVTGVLVYLAVERLISGDYEIDGGTMLITSGCAVAVNIIMGLTLHQSGHGHSHGTTNQQEENPSVRAAFIHVIGDFMQSMGVLVAAYILYFKPEYKYVDPICTFVFSILVLGTTLTILRDVILVLMEGTPKGVDFTAVRDLLLSVEGVEALHSLHIWALTVAQPVLSVHIAIAQNTDAQAVLKTASSRLQGKFHFHTVTIQIEDYSEDMKDCQACQGPSD
partner: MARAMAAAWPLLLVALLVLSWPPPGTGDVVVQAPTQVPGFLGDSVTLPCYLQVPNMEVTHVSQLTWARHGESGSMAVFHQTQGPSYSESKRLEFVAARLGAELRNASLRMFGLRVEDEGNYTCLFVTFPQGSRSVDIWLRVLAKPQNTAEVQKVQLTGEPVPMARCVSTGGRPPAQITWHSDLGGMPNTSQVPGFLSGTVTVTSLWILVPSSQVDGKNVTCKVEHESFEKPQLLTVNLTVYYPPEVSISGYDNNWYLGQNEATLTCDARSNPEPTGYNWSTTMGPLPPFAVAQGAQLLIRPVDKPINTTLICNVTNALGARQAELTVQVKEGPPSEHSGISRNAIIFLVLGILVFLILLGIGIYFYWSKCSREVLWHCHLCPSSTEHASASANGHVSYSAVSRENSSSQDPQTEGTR
B6: Tyrosine-protein kinase FRK (Homo sapiens), P42685 (parent)
chain: MSNICQRLWEYLEPYLPCLSTEADKSTVIENPGALCSPQSQRHGHYFVALFDYQARTAEDLSFRAGDKLQVLDTLHEGWWFARHLEKRRDGSSQQLQGYIPSNYVAEDRSLQAEPWFFGAIGRSDAEKQLLYSENKTGSFLIRESESQKGEFSLSVLDGAVVKHYRIKRLDEGGFFLTRRRIFSTLNEFVSHYTKTSDGLCVKLGKPCLKIQVPAPFDLSYKTVDQWEIDRNSIQLLKRLGSGQFGEVWEGLWNNTTPVAVKTLKPGSMDPNDFLREAQIMKNLRHPKLIQLYAVCTLEDPIYIITELMRHGSLQEYLQNDTGSKIHLTQQVDMAAQVASGMAYLESRNYIHRDLAARNVLVGEHNIYKVADFGLARVFKVDNEDIYESRHEIKLPVKWTAPEAIRSNKFSIKSDVWSFGILLYEIITYGKMPYSGMTGAQVIQMLAQNYRLPQPSNCPQQFYNIMLECWNAEPKERPTFETLRWKLEDYFETDSSYSDANNFIR
partner: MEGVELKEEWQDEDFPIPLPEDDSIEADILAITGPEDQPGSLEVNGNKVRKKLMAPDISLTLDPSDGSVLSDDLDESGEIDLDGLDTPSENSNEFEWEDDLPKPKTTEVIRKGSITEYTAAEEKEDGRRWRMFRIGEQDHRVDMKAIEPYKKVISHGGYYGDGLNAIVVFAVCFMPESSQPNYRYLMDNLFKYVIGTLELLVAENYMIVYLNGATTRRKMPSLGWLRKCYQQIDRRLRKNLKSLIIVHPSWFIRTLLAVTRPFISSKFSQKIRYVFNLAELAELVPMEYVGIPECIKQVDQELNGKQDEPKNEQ
B7: Serine/threonine-protein kinase PAK 5 (Homo sapiens), Q9P286 (parent)
chain: MFGKKKKKIEISGPSNFEHRVHTGFDPQEQKFTGLPQQWHSLLADTANRPKPMVDPSCITPIQLAPMKTIVRGNKPCKETSINGLLEDFDNISVTRSNSLRKESPPTPDQGASSHGPGHAEENGFITFSQYSSESDTTADYTTEKYREKSLYGDDLDPYYRGSHAAKQNGHVMKMKHGEAYYSEVKPLKSDFARFSADYHSHLDSLSKPSEYSDLKWEYQRASSSSPLDYSFQFTPSRTAGTSGCSKESLAYSESEWGPSLDDYDRRPKSSYLNQTSPQPTMRQRSRSGSGLQEPMMPFGASAFKTHPQGHSYNSYTYPRLSEPTMCIPKVDYDRAQMVLSPPLSGSDTYPRGPAKLPQSQSKSGYSSSSHQYPSGYHKATLYHHPSLQSSSQYISTASYLSSLSLSSSTYPPPSWGSSSDQQPSRVSHEQFRAALQLVVSPGDPREYLANFIKIGEGSTGIVCIATEKHTGKQVAVKKMDLRKQQRRELLFNEVVIMRDYHHDNVVDMYSSYLVGDELWVVMEFLEGGALTDIVTHTRMNEEQIATVCLSVLRALSYLHNQGVIHRDIKSDSILLTSDGRIKLSDFGFCAQVSKEVPKRKSLVGTPYWMAPEVISRLPYGTEVDIWSLGIMVIEMIDGEPPYFNEPPLQAMRRIRDSLPPRVKDLHKVSSVLRGFLDLMLVREPSQRATAQELLGHPFLKLAGPPSCIVPLMRQYRHH
partner: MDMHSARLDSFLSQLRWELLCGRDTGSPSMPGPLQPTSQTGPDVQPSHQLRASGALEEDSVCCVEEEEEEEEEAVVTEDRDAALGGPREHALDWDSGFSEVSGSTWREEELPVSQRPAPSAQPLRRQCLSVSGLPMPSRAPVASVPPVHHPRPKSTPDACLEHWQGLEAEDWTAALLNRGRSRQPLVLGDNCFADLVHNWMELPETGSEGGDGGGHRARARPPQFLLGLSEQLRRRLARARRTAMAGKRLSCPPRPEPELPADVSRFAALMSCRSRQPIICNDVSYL
B8: EKC/KEOPS complex subunit TP53RK (Homo sapiens), Q96S44 (parent)
chain: MAAARATTPADGEEPAPEAEALAAARERSSRFLSGLELVKQGAEARVFRGRFQGRAAVIKHRFPKGYRHPALEARLGRRRTVQEARALLRCRRAGISAPVVFFVDYASNCLYMEEIEGSVTVRDYIQSTMETEKTPQGLSNLAKTIGQVLARMHDEDLIHGDLTTSNMLLKPPLEQLNIVLIDFGLSFISALPEDKGVDLYVLEKAFLSTHPNTETVFEAFLKSYSTSSKKARPVLKKLDEVRLRGRKRSMVG

Variants of: B1
Conditions: with nt2na_human NOTCH2NLA

| effect of a mutation on the interaction | Variant |
| --- | --- |
| with no effect | R296K |

Variants of: B1
Conditions: with otx1_human OTX1, P32242
Sequence of otx1_human OTX1, P32242 (P32242 whole entry): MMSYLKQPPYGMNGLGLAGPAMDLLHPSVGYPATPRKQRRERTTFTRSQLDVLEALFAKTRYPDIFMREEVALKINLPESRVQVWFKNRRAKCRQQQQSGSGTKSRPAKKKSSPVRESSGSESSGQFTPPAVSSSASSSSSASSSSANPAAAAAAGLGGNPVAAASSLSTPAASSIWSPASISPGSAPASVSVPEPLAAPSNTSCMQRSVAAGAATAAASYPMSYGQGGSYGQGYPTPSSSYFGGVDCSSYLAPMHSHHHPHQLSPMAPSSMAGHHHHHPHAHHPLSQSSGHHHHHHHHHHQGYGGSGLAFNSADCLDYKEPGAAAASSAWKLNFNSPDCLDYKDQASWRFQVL

| effect of a mutation on the interaction | Variant |
| --- | --- |
| with no effect | R296K |

Variants of: B1
Conditions: with meox2_human MEOX2, P50222
Sequence of meox2_human MEOX2, P50222 (P50222 whole entry): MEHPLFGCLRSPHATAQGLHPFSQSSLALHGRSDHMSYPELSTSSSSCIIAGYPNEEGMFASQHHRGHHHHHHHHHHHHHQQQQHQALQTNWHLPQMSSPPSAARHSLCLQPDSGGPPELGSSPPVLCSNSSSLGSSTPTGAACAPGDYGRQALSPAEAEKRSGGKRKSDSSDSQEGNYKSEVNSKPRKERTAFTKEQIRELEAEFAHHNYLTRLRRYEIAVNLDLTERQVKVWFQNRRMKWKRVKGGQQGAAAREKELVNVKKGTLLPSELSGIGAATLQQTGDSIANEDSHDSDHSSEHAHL

| effect of a mutation on the interaction | Variant |
| --- | --- |
| with no effect | R296K |

Variants of: B1
Conditions: with kr101_human KRTAP10-1, P60331
Sequence of kr101_human KRTAP10-1, P60331 (P60331 whole entry): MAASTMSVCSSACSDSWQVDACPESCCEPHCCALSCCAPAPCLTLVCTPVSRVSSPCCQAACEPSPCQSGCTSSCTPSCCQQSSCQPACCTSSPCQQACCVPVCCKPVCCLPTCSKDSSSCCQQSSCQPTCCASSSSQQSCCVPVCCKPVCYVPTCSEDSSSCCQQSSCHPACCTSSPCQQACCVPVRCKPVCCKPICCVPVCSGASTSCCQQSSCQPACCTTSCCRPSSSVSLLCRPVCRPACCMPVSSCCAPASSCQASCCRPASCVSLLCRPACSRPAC

| effect of a mutation on the interaction | Variant |
| --- | --- |
| with no effect | R296K |

Variants of: B2
Conditions: with gipc2_human GIPC2, Q8TF65

| effect of a mutation on the interaction | Variant |
| --- | --- |
| with no effect | M433V |

Variants of: B3
Conditions: with fhl3_human FHL3, Q13643
Sequence of fhl3_human FHL3, Q13643 (Q13643 whole entry): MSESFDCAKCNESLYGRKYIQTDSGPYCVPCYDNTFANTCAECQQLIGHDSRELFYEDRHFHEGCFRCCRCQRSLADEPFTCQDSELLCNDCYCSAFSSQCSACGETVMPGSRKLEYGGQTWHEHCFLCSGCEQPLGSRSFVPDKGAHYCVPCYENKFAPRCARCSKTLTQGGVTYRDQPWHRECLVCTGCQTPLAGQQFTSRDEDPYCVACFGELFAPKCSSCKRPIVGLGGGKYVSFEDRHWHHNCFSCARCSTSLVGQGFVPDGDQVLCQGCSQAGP

| effect of a mutation on the interaction | Variant |
| --- | --- |
| with no effect | M249V |
| with no effect | T184A |
| with no effect | R176Q |
| with no effect | R176W |
| with no effect | P66S |
| with no effect | R231H |
| with no effect | S39N |
| with no effect | H297Y |
| with no effect | L131R |
| with no effect | R147C |
| with no effect | D79G |

Variants of: B4
Conditions: with lhx4_human LHX4, Q969G2

| effect of a mutation on the interaction | Variant |
| --- | --- |
| with no effect | K201N |

Variants of: B5
Conditions: with pvr_human PVR

| effect of a mutation on the interaction | Variant |
| --- | --- |
| with no effect | T181M |

Variants of: B6
Conditions: with bnip2_human BNIP2, Q12982

| effect of a mutation on the interaction | Variant |
| --- | --- |
| disrupting interaction strength | G122R |

Variants of: B7
Conditions: with inka1_human INKA1, Q96EL1

| effect of a mutation on the interaction | Variant |
| --- | --- |
| with no effect | S511N |

Variants of: B8
Conditions: with ccdb1_human CCNDBP1, O95273
Sequence of ccdb1_human CCNDBP1, O95273 (O95273 whole entry): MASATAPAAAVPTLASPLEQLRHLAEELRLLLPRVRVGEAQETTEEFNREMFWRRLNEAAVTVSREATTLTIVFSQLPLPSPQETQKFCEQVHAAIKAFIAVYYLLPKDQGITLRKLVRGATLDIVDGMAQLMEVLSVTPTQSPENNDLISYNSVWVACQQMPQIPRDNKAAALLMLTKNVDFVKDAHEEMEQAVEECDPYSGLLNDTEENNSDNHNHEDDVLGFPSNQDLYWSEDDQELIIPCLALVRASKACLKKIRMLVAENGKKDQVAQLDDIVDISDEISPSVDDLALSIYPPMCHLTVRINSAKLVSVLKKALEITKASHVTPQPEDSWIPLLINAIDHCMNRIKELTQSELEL

| effect of a mutation on the interaction | Variant |
| --- | --- |
| disrupting interaction strength | R123Q |
| with no effect | T129A |
| with no effect | T8M |
